Like-named read-outs stand apart in the source and are kept apart here.
Assays:
AR42J cells = experiment: Cellular uptake of ^203Pb-labeled peptides; format: cell-based, rat; conditions: 2 h post-incubation
Experimental: PSCTOC and PSC-PEG2-TOC were labeled with ^203Pb and purified via HPLC for high molar activities as descibed in the Supplementary Material and in Li and collaborators. The HPLC-purified ^203Pb-labeled peptides (3.4 kBq) were incubated with AR42J cells in 24-well plates (pre-coated with poly-D-lysine), which were plated at a density of 2.0 × 10^5 cells 2 days prior, in the binding medium at 37 °C for up to 120 min. The cells were then washed twice and lysed, and the radioactivities of the samples were determined (n=3).

[1] = In vivo biodistribution of ^203Pb-labeled peptides; parameters: species or system mice; conditions: female, athymic nu/nu, mouse, 37 kBq, total radioactivity; for tissue uptake at 1 h / tissue uptake at 3 h / tissue uptake at 24 h: intravenous; for tissue uptake at 1 h / tissue to tissue ratio at 1 h: 1 h post-administration; for tissue uptake at 3 h / tissue to tissue ratio at 3 h: 3 h post-administration; for tissue uptake at 24 h / tissue to tissue ratio at 24 h: 24 h post-administration; for tissue to tissue ratio at 1 h / tissue to tissue ratio at 3 h / tissue to tissue ratio at 24 h: iv
Experimental: AR42J cells (5.0 × 10^6 cells/animal) were implanted subcutaneously on the left shoulder of female athymic nu/nu mice. […] Extra groups of mice were co-administered 37 kBq of ^203Pb-PSC-PEG2-TOC with DL-lysine (400 mg/kg) to determine the effect of amino acid on renal uptake of the radiopharmaceutical. Mice (n=3 per time point) were euthanized at 1, 3, and 24 h post-administration, and tumors and organs/tissues of interest were excised and weighed. The radioactivities of the samples were measured using the gamma counter.

[2] = large intestine, read-out: Large intestine
[3] = small intestine, read-out: Small intestine
[4] = tumor/blood, read-out: Tumor/blood ratio
[5] = tumor/kidneys, read-out: Tumor/kidneys ratio
[6] = tumor/liver, read-out: Tumor/liver ratio
[7] = tumor/lung, read-out: Tumor/lung ratio
[8] = tumor/muscle, read-out: Tumor/muscle ratio

**Q.** Which results are given for `C[C@@H](O)[C@@H]1NC(=O)[C@H](CCCCN)NC(=O)[C@@H](Cc2c[nH]c3ccccc23)NC(=O)[C@H](Cc2ccc(O)cc2)NC(=O)[C@@H](NC(=O)[C@@H](Cc2ccccc2)NC(=O)CN2CCN(CC(=O)O)CCN(CC(N)=O)CCN(CC(=O)O)CC2)CSSC[C@@H](C(=O)N[C@H](CO)[C@@H](C)O)NC1=O` [[^203Pb]Pb-PSCTOC, metal not drawn]?
**A.** Cellular uptake, fold vs. [^203Pb]Pb-DOTATOC (AR42J cells): 6 fold; Cellular uptake (AR42J cells; 37 °C): 5%; tissue uptake at 1 h ([1]; blood, read-out: Blood): 0.53 ± 0.06 %ID/g; tissue uptake at 3 h ([1]; blood, read-out: Blood): 0.03 ± 0.01 %ID/g; tissue uptake at 24 h ([1]; blood, read-out: Blood): 0.01 %ID/g; tissue uptake at 1 h ([1]; brain, read-out: Brain): 0.16 ± 0.16 %ID/g; tissue uptake at 3 h ([1]; brain, read-out: Brain): 0.01 %ID/g; tissue uptake at 24 h ([1]; brain, read-out: Brain): 0.02 %ID/g; tissue uptake at 1 h ([1]; heart, read-out: Heart): 0.32 ± 0.02 %ID/g; tissue uptake at 3 h ([1]; heart, read-out: Heart): 0.07 %ID/g; tissue uptake at 24 h ([1]; heart, read-out: Heart): 0.05 ± 0.01 %ID/g; tissue uptake at 1 h ([1]; kidneys, read-out: Kidneys): 13.6 ± 0.75 %ID/g; tissue uptake at 3 h ([1]; kidneys, read-out: Kidneys): 8.35 ± 1.33 %ID/g; tissue uptake at 24 h ([1]; kidneys, read-out: Kidneys): 5.59 ± 1.3 %ID/g; tissue uptake at 1 h [1, 2]: 0.77 ± 0.04 %ID/g; tissue uptake at 3 h [1, 2]: 3.1 ± 0.12 %ID/g; tissue uptake at 24 h [1, 2]: 0.45 ± 0.03 %ID/g; tissue uptake at 1 h ([1]; liver, read-out: Liver): 0.44 ± 0.02 %ID/g; tissue uptake at 3 h ([1]; liver, read-out: Liver): 0.19 ± 0.03 %ID/g; tissue uptake at 24 h ([1]; liver, read-out: Liver): 0.14 %ID/g; tissue uptake at 1 h ([1]; lung, read-out: Lung): 5.06 ± 0.74 %ID/g; tissue uptake at 3 h ([1]; lung, read-out: Lung): 1.09 ± 0.36 %ID/g; tissue uptake at 24 h ([1]; lung, read-out: Lung): 1.39 ± 0.27 %ID/g; tissue uptake at 1 h ([1]; muscle, read-out: Muscle): 0.25 ± 0.06 %ID/g; tissue uptake at 3 h ([1]; muscle, read-out: Muscle): 0.05 ± 0.03 %ID/g; tissue uptake at 24 h ([1]; muscle, read-out: Muscle): 0.03 ± 0.01 %ID/g; tissue uptake at 1 h [1, 3]: 1.38 ± 0.07 %ID/g; tissue uptake at 3 h [1, 3]: 2.85 ± 2.25 %ID/g; tissue uptake at 24 h [1, 3]: 0.12 ± 0.01 %ID/g; tissue uptake at 1 h ([1]; spleen, read-out: Spleen): 0.7 ± 0.13 %ID/g; tissue uptake at 3 h ([1]; spleen, read-out: Spleen): 0.35 ± 0.12 %ID/g; tissue uptake at 24 h ([1]; spleen, read-out: Spleen): 0.24 ± 0.03 %ID/g; tissue uptake at 1 h ([1]; tumor, read-out: Tumor): 19.1 ± 3.31 %ID/g; tissue uptake at 3 h ([1]; tumor, read-out: Tumor): 16.2 ± 1.76 %ID/g; tissue uptake at 24 h ([1]; tumor, read-out: Tumor): 8.65 ± 0.7 %ID/g; tissue to tissue ratio at 1 h [1, 4]: 36.1; tissue to tissue ratio at 3 h [1, 4]: 540; tissue to tissue ratio at 24 h [1, 4]: 865; tissue to tissue ratio at 1 h [1, 5]: 1.41; tissue to tissue ratio at 3 h [1, 5]: 1.94; tissue to tissue ratio at 24 h [1, 5]: 1.55; tissue to tissue ratio at 1 h [1, 6]: 43.5; tissue to tissue ratio at 3 h [1, 6]: 85.3; tissue to tissue ratio at 24 h [1, 6]: 61.8; tissue to tissue ratio at 1 h [1, 7]: 3.78; tissue to tissue ratio at 3 h [1, 7]: 14.9; tissue to tissue ratio at 24 h [1, 7]: 6.22; tissue to tissue ratio at 1 h [1, 8]: 76.6; tissue to tissue ratio at 3 h [1, 8]: 324; tissue to tissue ratio at 24 h [1, 8]: 288

— PMC10881741, “Structural modifications toward improved lead-203/lead-212 peptide-based image-guided alpha-particle radiopharmaceutical therapies for neuroendocrine tumors” (European Journal of Nuclear Medicine and Molecular Imaging, 2023)
